In the test the target is MSLN (UniProt Q13421). In words: BLI.
MSLN, sequence (Q13421 other isoform, or with tags, fused parts or gaps limits assumed): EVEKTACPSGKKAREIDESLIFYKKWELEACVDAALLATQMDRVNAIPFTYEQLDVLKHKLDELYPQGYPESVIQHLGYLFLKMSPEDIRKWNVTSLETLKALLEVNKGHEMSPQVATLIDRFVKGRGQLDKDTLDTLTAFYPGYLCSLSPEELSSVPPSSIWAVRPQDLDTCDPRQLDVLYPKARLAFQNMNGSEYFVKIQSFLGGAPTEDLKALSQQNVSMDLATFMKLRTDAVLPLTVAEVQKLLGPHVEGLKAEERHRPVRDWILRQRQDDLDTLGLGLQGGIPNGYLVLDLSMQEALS

B1: nanobody NM5 (VHH)
VHH: DVQLQESGGGLVQAGGSLRLSCVGAGVSFSPYGIGWWRQAQGNQREWVASIYRSGSTNYEDFAKDRFTISRDNTKNTAYLQMNSLKPEDTAVYYCQILGTSYRGQGTQVTVSS
A word on the Kd: it is a measure of binding affinity in units of concentration. A high value points to lower affinity. As to B1, the dissociation constant (Kd) is 11.4 nM. In other words, the double-digit nanomolar range.

The values are drawn from patent US20250312453A1.
